Here are results for 8 molecules from article PMC11457862, “Engineered cytokine/antibody fusion proteins improve IL-2 delivery to pro-inflammatory cells and promote antitumor activity” (JCI Insight, 2024).

Positions count from the first letter of the chain named. Names may count otherwise.

Test [1] addresses T1, biotinylated mouse IL-2Rα (Mus musculus, UniProt P01590, biotin).
T1 construct: mouse IL-2 receptor alpha; the supplementary methods describe only the human constructs; probably an ectodomain with BAP like them; also called mIL-2Rα
Description: BLI; same set-up as a7; equilibrium titration, first-order fit (Supplemental Figure 6G,H, Supplemental Table 1). The note with it: both partners purified. In general terms: In BLI a coated tip is dipped into the sample, and binding shifts an interference pattern.

Test [2] deals with T2, biotinylated mouse IL-2Rβ (Mus musculus, UniProt P16297, biotin).
T2 construct: mouse IL-2 receptor beta; the supplementary methods describe only the human constructs; probably an ectodomain with BAP like them; also called mIL-2Rβ
Described as above. As to conditions: both partners purified.

Test [3] addresses T3, biotinylated human IL-2 (amino acids 1-133, C-terminal biotin acceptor peptide) (human, UniProt P60568, biotin on the biotin acceptor peptide (BirA ligase)).
T3 construct: also called immobilized IL-2; hIL-2; source: HEK 293F, purified (Ni-NTA, biotinylated with BirA, SEC)
Description: BLI; same set-up as a3; equilibrium titration, first-order fit (Supplemental Figure 4A-C, Supplemental Table 4). As to conditions: both partners purified.

Test [4] concerns the target T3, biotinylated human IL-2 (amino acids …). The test is described as follows: BLI; same set-up as a1; equilibrium titration of the response at the end of the association phase, first-order fit (Figures 2 and 3, Supplemental Table 1). The note with it: both partners purified.
For test [5] the target is unchanged. Description: BLI; biotinylated human IL-2 or IL-2Rβ on streptavidin tips; engineered 602 IC variants and controls in PBSA; kinetic fit, 1:1 binding model (Supplemental Figure 5, Supplemental Table 4). The note with it: both partners purified.
For test [6] the target is unchanged. The test is described as follows: BLI; biotinylated human IL-2, IL-2Rα or IL-2Rβ on streptavidin tips (Octet Red96); soluble analyte in PBSA (PBS pH 7.2, 0.1% BSA), 300 s association; kinetic fit, 1:1 binding model; IL-2/602 Cx 2:1 by the legend (Supplemental Figure 2, Supplemental Table 1). As to conditions: both partners purified.
For test [7] the target is unchanged. The test is described as follows: BLI; same set-up as a5; equilibrium titration, first-order fit (Supplemental Figure 6C,D, Supplemental Table 5). The note with it: both partners purified.
For test [8] the target is unchanged. Description: BLI; biotinylated human IL-2 on streptavidin tips; scFvs, IL-2/antibody complexes (2:1) and ICs in PBSA; kinetic fit, 1:1 binding model (Supplemental Figure 6A,B, Supplemental Table 5). The note with it: both partners purified.
The target is the same in test [9]. The test is described as follows: flow cytometry on cells; yeast displaying scFv incubated with 5 nM biotinylated IL-2 and titrated IL-2Rα in PBE buffer, 2 h, room temperature; detected with Alexa Fluor 647 streptavidin. As to conditions: one partner purified. In general terms: A flow cytometer gives signals particle by particle.
The target in test [10] is T4, human IL-2 (human, UniProt P60568).
T4 construct: Used soluble, immobilised on BLI tips and in the crystals; also called hIL-2; interleukin-2
The test is described as follows: BLI; scFvs with IL-2, kinetics; who was immobilised is not told in what was shown. As to conditions: both partners purified.

T2 sequence (P16297 27-539): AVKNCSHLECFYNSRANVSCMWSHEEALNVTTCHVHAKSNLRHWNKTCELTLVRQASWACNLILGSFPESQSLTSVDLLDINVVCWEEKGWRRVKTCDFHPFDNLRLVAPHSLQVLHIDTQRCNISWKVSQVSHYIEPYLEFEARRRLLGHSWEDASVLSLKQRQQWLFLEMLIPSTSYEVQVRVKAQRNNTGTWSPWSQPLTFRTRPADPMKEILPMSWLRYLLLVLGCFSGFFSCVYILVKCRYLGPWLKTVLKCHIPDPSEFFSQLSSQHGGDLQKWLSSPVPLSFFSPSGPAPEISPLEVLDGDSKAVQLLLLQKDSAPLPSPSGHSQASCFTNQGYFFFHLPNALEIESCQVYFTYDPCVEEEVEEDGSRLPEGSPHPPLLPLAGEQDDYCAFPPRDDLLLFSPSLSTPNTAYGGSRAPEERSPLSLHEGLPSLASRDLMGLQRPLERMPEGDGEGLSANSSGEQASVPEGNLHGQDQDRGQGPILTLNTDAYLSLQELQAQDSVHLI
T1 sequence (P01590 22-268): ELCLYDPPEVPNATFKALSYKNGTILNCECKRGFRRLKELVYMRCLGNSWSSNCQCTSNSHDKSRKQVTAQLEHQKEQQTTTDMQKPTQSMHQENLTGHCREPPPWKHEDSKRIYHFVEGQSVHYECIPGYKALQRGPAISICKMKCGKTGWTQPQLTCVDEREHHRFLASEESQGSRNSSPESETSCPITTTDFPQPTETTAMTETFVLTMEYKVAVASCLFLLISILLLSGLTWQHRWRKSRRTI

B1: anti-human IL-2 antibody 602 (MAB602), recombinant mouse IgG2a kappa (antibody, V domains shown)
VH: EVQLQESGPGLVAPSQSLSITCTVSGFSLTNYDISWIRQPPGKGLEWLGVIWTGGGTNYNSGFMSRLSITKDNSKSQVFLKMNSLQTDDTAIYYCVRQGRTPYWGQGTLVTVSA
VL: DIQVTQSPSSLSVSLGDRVTITCKASKDIYNRLAWYQQKPGNAPRLLISGATSLETGVPSRFSGSGSGKDYTLTITSLQTEDVATYYCQQFWGTPYTFGGGTKLEIK
notes: mouse IgG2a heavy chain constant region; mouse kappa light chain constant region; mouse IgG2a kappa; source: HEK 293F, transient co-transfection, purified (Protein G, SEC); copies: 2 + 2
Broadly, the Kd is the equilibrium constant for the complex coming apart. The low end stands for tighter binding, the high end for weaker binding. One may read the koff as a measure of how fast the partners let go of each other. For orientation: kon means the second-order rate constant of association. Low readings indicate slower complex formation, high ones faster complex formation. Consider B1, for which the equilibrium dissociation constant (Kd) in test [1] is > 10 µM; in [2] it was > 10 µM; in test [3] it was 3.7 ± 7.4 nM; in test [4] it was 6.3 ± 5.2 nM; in test [5], 0.044 ± 0.05 nM; in [6] it was 0.13 ± 0.02 nM. The off-rate constant (koff) in [5] worked out at 2.8e-05 s⁻¹; in test [6], 5.1e-05 s⁻¹. Moreover, the kon came out at 642000 M⁻¹ s⁻¹ in test [5] and 382000 M⁻¹ s⁻¹ in [6].

B2: F10 scFv (VH-[G4S]3-VL), soluble (scFv, V domains shown)
VH: B1 VH with T101S
VL: B1 VL with F91S, G93D
notes: the scFv chain of PDB 8SOW; source: HEK 293F, purified (Ni-NTA, SEC)
In turn, B2 returned a Kd in [7] of 6.12 ± 5.66 nM. In test [8], this molecule returned a Kd of 0.34 ± 0.01 nM, a koff of 0.000188 s⁻¹ and a kon of 563000 M⁻¹ s⁻¹.

B3: yeast-displayed 602 scFv variant A8 (scFv, V domains shown)
VH: B1 VH
VL: B1 VL with G93D, T97S
notes: also called A8 scFv; not shown: Aga2, N-terminal, kept
As to B3, in test [9], the binding result was “binds”.

B4: F10 scFv (scFv, V domains shown)
VH: B1 VH with T101S
VL: B1 VL with F91S, G93D
notes: as the scFv of m13 with the stated changes; numbers count on the scFv (T99S in CDR3H, F91S and G93D in CDR3L, Kabat); soluble scFv used for BLI and for the crystal structure; also called variant F10
B4: in [10], the “fold reduction in dissociation rate against 602 scFv” value worked out at 3.6 fold.

B5: yeast-displayed 602 scFv variant H2 (scFv, V domains shown)
VH: B1 VH with T101S
VL: B1 VL with Y30H, F91V
notes: also called H2 scFv; not shown: Aga2, N-terminal, kept
Regarding B5, in test [9], the binding result is recorded as “binds”.

B6: yeast-displayed 602 scFv variant C5 (scFv, V domains shown)
VH: B1 VH
VL: B1 VL with F91T
notes: also called C5 scFv; not shown: Aga2, N-terminal, kept
For the molecule B6, the binding result in test [9] was “binds”.

B7: 602 scFv (VH-[G4S]3-VL), soluble (scFv, V domains shown)
VH: B1 VH
VL: B1 VL
notes: the scFv chain of PDB 8SOZ; source: HEK 293F, purified (Ni-NTA, SEC)
In test [7], B7 registered a Kd of 9 ± 8.59 nM. In [8], this molecule displayed a dissociation constant Kd of 1.94 ± 0.02 nM, a dissociation rate constant (koff) of 0.00067 s⁻¹ and a kon of 361000 M⁻¹ s⁻¹.

B8: yeast-displayed 602 scFv variant E10 (scFv, V domains shown)
VH: B1 VH with T101A
VL: B1 VL with F91L
notes: also called E10 scFv; not shown: Aga2, N-terminal, kept
With B8, the binding result in [9] was “binds”.
